Experimental data published in article PMC7984218.

T1: Dna2405N (UniProt P38859)
T1 sequence: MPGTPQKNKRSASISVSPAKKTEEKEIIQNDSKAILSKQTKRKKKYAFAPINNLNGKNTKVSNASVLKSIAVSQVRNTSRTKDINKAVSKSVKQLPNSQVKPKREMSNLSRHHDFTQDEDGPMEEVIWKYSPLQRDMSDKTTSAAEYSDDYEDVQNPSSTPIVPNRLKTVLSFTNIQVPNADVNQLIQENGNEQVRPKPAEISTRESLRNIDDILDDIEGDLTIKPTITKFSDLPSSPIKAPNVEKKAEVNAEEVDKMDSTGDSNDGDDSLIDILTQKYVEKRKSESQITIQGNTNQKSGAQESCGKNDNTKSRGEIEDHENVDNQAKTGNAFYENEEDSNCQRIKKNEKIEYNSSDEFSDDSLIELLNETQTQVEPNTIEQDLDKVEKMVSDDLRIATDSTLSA

T2: GST-Dna2405N-5A-His6 (UniProt P38859 1-405, K41A;R42A;K43A;K44A;K45A)
T2 sequence: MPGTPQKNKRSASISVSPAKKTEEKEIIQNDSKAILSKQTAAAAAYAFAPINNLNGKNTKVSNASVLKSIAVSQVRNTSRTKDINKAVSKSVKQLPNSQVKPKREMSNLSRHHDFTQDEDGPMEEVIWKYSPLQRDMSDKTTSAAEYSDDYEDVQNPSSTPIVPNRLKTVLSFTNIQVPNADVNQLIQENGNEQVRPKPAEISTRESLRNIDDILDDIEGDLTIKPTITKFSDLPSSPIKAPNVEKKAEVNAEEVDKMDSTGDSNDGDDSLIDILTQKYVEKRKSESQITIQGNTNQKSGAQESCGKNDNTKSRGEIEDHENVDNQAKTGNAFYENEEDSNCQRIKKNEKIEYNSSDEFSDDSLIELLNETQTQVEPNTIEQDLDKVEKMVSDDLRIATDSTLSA


How the values were obtained:
Dna2405N = target: T1, Dna2405N; experiment: competition
GST-Dna2405N-5A-His6 = target: T2, GST-Dna2405N-5A-His6; experiment: EMSA

| Molecule | binding signal (% inhibition of Hairpin binding) (Dna2405N) | binding result (GST-Dna2405N-5A-His6) |
| --- | --- | --- |
| M13mp18 viral DNA (sscDNA) | > 80 | – |
| Hairpin (standard 5' hairpin flap; oligos 1, 2, 5) (structured_DNA) DNA 1: GAAAACATTATTAATGGCGTCGAGCTAGGCACAAGGCGAACTGCTAACGG DNA 2: CCGTTAGCAGTTCGCCTTGTGCCTA DNA 3: GCGCATGTGCGTTCCGTCCGGTTCAAGCCGCAGCGGCTTGAACCGGACGCTCGACGCCATTAATAATGTTTTC | – | no binding |
